Experimental data taken from paper PMC10797183.

How the values were obtained:
[1] = molecular target: Acanthamoeba castellanii actin (Acanthamoeba castellanii)
[2] = molecular target: Acanthamoeba castellanii actin (Acanthamoeba castellanii); remark: listed apart in the source

run length, mean of three independent samples, TIRF microscopy with profilin [1]: 24.1 μm
median run length (length of dim filaments after 5 min), TIRF microscopy with profilin; said to be an underestimate [2]: 24 μm
Substance: Fhod-B (C-terminal half: FH1 and FH2 domains and the Fhod-B tail) (domain or fragment)
